1 molecule from article PMC11271488, “The AKT2/SIRT5/TFEB pathway as a potential therapeutic target in non-neovascular AMD” (Nature Communications, 2024) can be followed below.

The target in the assay is T1, Synaptotagmin Like 1 (SYTL1), on the HuProt v3.1 human proteome array (human, UniProt Q8IYJ3 1-562).
T1 construct: Synaptotagmin Like 1 (SYTL1), human; as arrayed on HuProt v3.1; source: spotted on the HuProt v3.1 human proteome array (CDI NextGen Proteomics)
T1 sequence (looked up): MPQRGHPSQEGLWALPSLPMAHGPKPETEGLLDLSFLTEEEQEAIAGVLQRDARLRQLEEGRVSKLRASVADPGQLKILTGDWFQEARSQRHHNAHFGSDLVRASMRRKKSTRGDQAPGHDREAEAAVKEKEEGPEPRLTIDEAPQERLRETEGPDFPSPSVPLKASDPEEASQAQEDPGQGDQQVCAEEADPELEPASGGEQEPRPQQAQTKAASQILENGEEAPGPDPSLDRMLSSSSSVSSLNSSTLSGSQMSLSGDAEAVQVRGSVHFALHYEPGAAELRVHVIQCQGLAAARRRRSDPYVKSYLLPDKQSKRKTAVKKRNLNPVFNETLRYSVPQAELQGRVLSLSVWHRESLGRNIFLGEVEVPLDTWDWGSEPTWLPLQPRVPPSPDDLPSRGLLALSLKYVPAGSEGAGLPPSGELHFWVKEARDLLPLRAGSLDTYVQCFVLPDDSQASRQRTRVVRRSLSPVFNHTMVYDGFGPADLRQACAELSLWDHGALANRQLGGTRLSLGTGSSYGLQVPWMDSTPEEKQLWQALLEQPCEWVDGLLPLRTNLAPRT
Kind of assay: peptide or protein array; HuProt v3.1 human proteome array probed with recombinant AKT2 at 1 ug/mL; GenePix analysis; only interactions with a Z-score above 6 considered. Conditions: both partners purified.

B1: recombinant AKT2 (RAC-beta serine/threonine-protein kinase) (enzyme, human, UniProt P31751 1-481, looked up)
chain: MNEVSVIKEGWLHKRGEYIKTWRPRYFLLKSDGSFIGYKERPEAPDQTLPPLNNFSVAECQLMKTERPRPNTFVIRCLQWTTVIERTFHVDSPDEREEWMRAIQMVANSLKQRAPGEDPMDYKCGSPSDSSTTEEMEVAVSKARAKVTMNDFDYLKLLGKGTFGKVILVREKATGRYYAMKILRKEVIIAKDEVAHTVTESRVLQNTRHPFLTALKYAFQTHDRLCFVMEYANGGELFFHLSRERVFTEERARFYGAEIVSALEYLHSRDVVYRDIKLENLMLDKDGHIKITDFGLCKEGISDGATMKTFCGTPEYLAPEVLEDNDYGRAVDWWGLGVVMYEMMCGRLPFYNQDHERLFELILMEEIRFPRTLSPEAKSLLAGLLKKDPKQRLGGGPSDAKEVMEHRFFLSINWQDVVQKKLLPPFKPQVTSEVDTRYFDDEFTAQSITITPPDRYDSLGLLELDQRTHFPQFSYSASIRE
notes: AKT2, RAC-beta serine/threonine-protein kinase; recombinant protein used as the probe on the HuProt v3.1 array; source: recombinant
On to B1, for which the binding result is “binds”.
